# Measurements taken from paper PMC2859858.
# Target: ProLabel-LEDGF fusion protein (UniProt O75475)
# Assay: chemiluminescent co-IP assay
# Details: 293T cells, 48 h after transfection; parent: est. 4700; read off a plot
# UniProt O75475, sequence (O75475 whole entry, the tested form may be a part): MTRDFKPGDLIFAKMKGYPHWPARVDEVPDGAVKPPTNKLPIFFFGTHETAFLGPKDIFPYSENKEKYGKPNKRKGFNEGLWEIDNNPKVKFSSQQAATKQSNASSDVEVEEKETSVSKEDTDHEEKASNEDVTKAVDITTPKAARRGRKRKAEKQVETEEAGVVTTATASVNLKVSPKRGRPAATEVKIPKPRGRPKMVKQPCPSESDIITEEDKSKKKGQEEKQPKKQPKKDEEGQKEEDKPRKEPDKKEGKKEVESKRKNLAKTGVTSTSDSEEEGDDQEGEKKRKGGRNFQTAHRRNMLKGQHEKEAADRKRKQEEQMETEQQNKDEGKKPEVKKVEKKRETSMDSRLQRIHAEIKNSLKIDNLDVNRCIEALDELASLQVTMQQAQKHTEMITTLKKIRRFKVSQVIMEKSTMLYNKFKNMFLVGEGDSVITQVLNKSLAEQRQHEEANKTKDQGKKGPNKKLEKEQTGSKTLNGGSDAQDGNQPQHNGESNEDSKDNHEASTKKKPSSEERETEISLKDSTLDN
row,Substance,response [RLU]
1,AcGFP1-IN wild type E170A; H171A,50
2,AcGFP1-IN wild type E170A; K173A,1300
3,AcGFP1-IN wild type H171A; K173A,250
4,AcGFP1-IN wild type H171A; L172A,130
